The text below walks through data of article PMC3749956 (PLoS Pathogens, 2013).

In data set [1] the target is tA27-WT (aa 21–84, C71A/C72A, extra N-terminal tryptophan) (vaccinia virus (Western Reserve strain)) (UniProt P11258). As to the kind of experiment: AUC.
Data set [2] has the same target. As to the kind of experiment: SEC-MALS. (In gel filtration, larger molecules generally elute earlier.)
Data set [3] concerns the molecule itself. The experiment in a line: non-reducing SDS-PAGE with immunoblot (disulfide-linked complexes).

“tA27-WT (aa 21–84, C71A/C72A, extra N-terminal tryptophan) (from UniProt P11258 21-84) (domain or fragment)”: the stoichiometry N in data set [1] and in data set [2] was 2 each time.

B1: Vaccinia virus A27 protein, full length wild type (natural protein)
chain: MDGTLFPGDDDLAIPATEFFSTKAAKKPEAKREAIVKADEDDNEETLKQRLTNLEKKITNVTTKFEQIEKCCKRNDEVLFRLENHAETLRAAMISLAKKIDVQTGRRPYE
Consider B1, for which the “stoichiometry N” value in data set [3] was determined as 2.

What is called stoichiometry N is a count of units in the complex or per binding partner.
